# From the nanobody polyreactivity screen of Harvey et al. (2022)
# Assay: yeast display, Sf9 membrane polyspecificity reagent, FACS + sequencing; frameworks hold sequencing errors
# Method in brief: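 A nanobody's polyreactivity label depends on the gate it was sorted from. Yeast display cells were stained with 10% biotinylated, detergent-solubilized Sf9 membrane reagent for 1 hour at 4 °C, enriched on streptavidin microbeads and sorted by FACS. The low and high (top ~1%) gates were set on anti-HA fluorescence for expression and streptavidin fluorescence for reagent binding.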
row,Sequence,polyreactivity (PSR sort gate)
1,QVQLVESGGGLVQAGGSLRLSCAASGGTLFTNAMGWYRQAPGKERELVAAISWRGGRTYYADSVKGRFTISRDNAKNTVYLQMNSLKPEDTAVYYCAAASAAGYDYWGQGTQVTVSS,low polyreactivity
2,QVQLVESGGGLVQAGGSLRLSCAASGGTLQGNAMGWYRPAPGKERELVAAISSRGGRTYYADSVKGRFTSSRDNAKNTVYLQMNSLKPEDTAVYYCNAEYPVYFEGYPYYWDYWGDSWGQGTQVTVSS,high polyreactivity
3,QVQLVESGGGLVQAGGSLRLSCAASGGTLQGNAMGWYRQAPGKERELVAAISSRGGRTYYADSVKGRFTISRDNAKNTVYLQMNSLKPEDTAVYYCAAVQKGDSTLLRTKGGYWGQGTQVTVSS,high polyreactivity
4,QVQLVESGGGLVQAGGSLRLSCAASGGTLVRYAMGWYRQAPGKERELVAAIDRDGDSTYYADSVKGRFTISRDNAKNTVYLQMNSLKPEDTAVYYCNADEIRQTDGYDYWGQGTQVTVSS,high polyreactivity
5,QVQLVESGGGLVQAGGSLRLSCAASGGTLYTYAMGWYRQAPGKEWEFVAAITVSGGRTYYADSVKGRFTISRDNAKNTVYLLMNSLKPEDTAVYYCAARYWSWRSFKVDYWGQGTQVTVSS,high polyreactivity
6,QVQLVESGGGLVQAGGSLRLSCAASGGTMLYYAMGWYRQAPRKEMELVAVITSSAGRTYYADSVKGRITISRDNAKITVYLLMNSLKPEDTAVSYCNATGYLVGSISIYDYWGQGTQVTVSS,low polyreactivity
7,QVQLVESGGGLVQAGGSLRLSCAASGGTYHANAMGWYRQAPGKERELVAGITSGGSTYYADSVKGRFTISRDNAKNTVYLQMNSLKPEDTAVYYCNARYPLNIIRGFVWWTVGHDYWGQGTQVTVSS,low polyreactivity
8,QVQLVESGGGLVQAGGSLRLSCAASGGTYRVKAMGWYRQAPGKEREFVAAISGSGSSTYYADSVKGRFTISRDNAKNTVYLQMNSLKPEDTAVYYCAARSCVGGDNDYWGQGTQVTVSS,low polyreactivity
9,QVQLVESGGGLVQAGGSLRLSCAASGHIFFYYTMGWYRQAPGKERELVAGITIGGSTNYADSVKGRFTISRDNAKNTVYLQMNSLKPEDTAVYYCNVVNYVYIYSYWEYYYWGQGTQVTVSS,low polyreactivity
10,QVQLVESGGGLVQAGGSLRLSCAASGHIFNYYAMGWYRQAPGKERELVAAIRSGARTSYADSVKGRFTISRDNAKNTVNLQMNSLKPEDTAVYYCAAVGVAYLYPSDYWGQGTQVPVSS,high polyreactivity
11,QVQLVESGGGLVQAGGSLRLSCAASGHTFYYYTMGWYRQAPGKERELVASIRNGGNTNYADSVKGRFTISRDTAKNTVYLQMHSLKPEDTAVYYCAAVFGWSYITAYDWGQGTQVTVSS,high polyreactivity
12,QVQLVESGGGLVQAGGSLRLSCAASGHTYRYYAMGWYRQAPGKERELVAAITGGGGSTYYADSVKGRFTISRDNAKNTVYLQMNSLKPEDTAVYYCATGGVSGIVGGDYWGQGTQVTVSS,low polyreactivity
13,QVQLVESGGGLVQAGGSLRLSCAASGIAYTYNAMGRYRQAPGKERELVASISRTGGSTRYADSVKGRFTISRDNAKYTVYLQMNSLKPEDTAVYYCAALSWRYVKYRFDYWGQGTQVTVSS,high polyreactivity
14,QVQLVESGGGLVQAGGSLRLSCAASGIFASYAMGWYRQAPGKERELVAAIRSSGGRTYYADSVKGRFTISRDNAKNTFYLQMNSLKPEDTAVYYCAARYYTYDGYSKYDFWGQGTQVTVSS,high polyreactivity
15,QVQLVESGGGLVQAGGSLRLSCAASGIFAWNAMGWYRQAPGKERELVAAISWSGGSTYADSVKGRFTISRDNAKNTVYLQMNSLKPEDTAVYYCAKVSSLTSKSDYWGQGTQVTVSS,low polyreactivity
16,QVQLVESGGGLVQAGGSLRLSCAASGIFDPNAMGWYRQAPGKERELVAAITSGGSTNYADSVKGRFTISRDNAKNTVYLQMNSLKPVDTAVYYCNADSYDEIKYGYWGQGTQVTVSS,low polyreactivity
17,QVQLVESGGGLVQAGGSLRLSCAASGIFDRYAMGWYRQAPGKERELVAAISYNAGSTYYADSVKGRFTISRDNAKNTVYLQMNSLKPEDTAVYYCAARGFGTVNGKLYGYWGQGTQVTVSS,high polyreactivity
18,QVQLVESGGGLVQAGGSLRLSCAASGIFDYYVMGWYIQAPGKERELVAAISKSVGSTYYADSVKGRFTISRDNAKNTVYLQMNSLKPEDTAVYYCAVENRYRFGYWGQGTQVTVSS,low polyreactivity
19,QVQLVESGGGLVQAGGSLRLSCAASGIFFQQYAMGWYRLAPGKERELVAAISRGGTRTYYADSVKGRFTISRDNAKNTGYLQMNSLKPEDTAVYYCAADRGYVSYDYWGQGTQVTVSS,high polyreactivity
20,QVQLVESGGGLVQAGGSLRLSCAASGIFGGYAMGWYRQAPGKERELVAAIRYSSGSTYYADSVKGRFTISRDNAKNTVYLQMKSLKPEDTAVYYCAAEVVEAPDNDYWGQGTQVTVSS,low polyreactivity
21,QVQLVESGGGLVQAGGSLRLSCAASGIFGGYAMGWYRQAPGKERELVAAISYSGGTTYYADSVKGRFTISRDNAKNTVYLQMNSLKPEDTAVYYCNADDPDYLVSYRYDYWGQGTQVTVSS,low polyreactivity
22,QVQLVESGGGLVQAGGSLRLSCAASGIFLVYAMGWYRQAPGKERELVAAIRSDASTNYADSVKGRFTISRDNAKNTVYLQMNILKPEDTAVYYCNTAQLVSDEFDYWGQGTQVTVSS,low polyreactivity

row,Sequence,polyreactivity (PSR sort gate)
1,QVQLVESGGGLVQAGGSLRLSCAASGIFPWFAMGWYRQAPGKERELVAVITGGDSTNYADSVKGRFTISRDNAKNTVYLQMNSLKPEDTAVYYCAARNTGPVQYYYWGQGTQVTVSS,low polyreactivity
2,QVQLVESGGGLVQAGGSLRLSCAASGIFRSNAMGWYRQAPGKERELVAGISSGGGTNYADSVKGRFTISRDNAKNTVYLQMNSLKPDDTAVYYCAKERIYFYYWYVYTDLVYEYDYWGQGTQVTVSS,low polyreactivity
3,QVQLVESGGGLVQAGGSLRLSCAASGIFSYYAMGWYRQAPGKERELVATISRRGSSTYYADSVKGRFTISRDNAKNTVYLQMNSLKPEDTAVYYCNADIGWGRFSQSFDYWGQGTQVTVSS,low polyreactivity
4,QVQLVESGGGLVQAGGSLRLSCAASGIIFAGNAMGWYRQAPGKEREFVAAISYRGGTTYYADSVKGRFTISRDNAKNTVYLQMNSLKPEDTAVYYCAADPRSKGFYYGYDYWGQGTQGTVSS,high polyreactivity
5,QVQLVESGGGLVQAGGSLRLSCAASGIIFAGNAMGWYRQAPGKERELVAAISSGTTTNYADSVKGRFTISRDNAKNTVYLQMNRLKPEDTAVYYCAADDFPYKSDYWGQGTHVTVSS,low polyreactivity
6,QVQLVESGGGLVQAGGSLRLSCAASGIIFAHYAMGWYRQAPGKERELVAAISSSGATTYYADSVKGRFTISRDNAKNTVYFQMNSLKPEDTAVYYCNTETYHVRRLFDYWGQGTQVTVSS,low polyreactivity
7,QVQLVESGGGLVQAGGSLRLSCAASGIIFALYAMGWYRQAPGKERELVATITYSGGSTYYADSVKGRFTISRDNAKNTVYLQMNSLKPEDSAVYYCNRDQWPWESGYAYNYWGQGTQVTVSS,low polyreactivity
8,QVQLVESGGGLVQAGGSLRLSCAASGIIFATNGMGWYRQAPGKEREFVASSTNGGSTNYADSVKGRFTISRDNAKNTVYLQMNSLKPEDTAVYYCAAAASDDYDYPTEYEYWGQGTQVTVSS,high polyreactivity
9,QVQLVESGGGLVQAGGSLRLSCAASGIIFAYYAMGWYRQAPGKERELVAAISWNSGYTYYADSVKGRFTISRDNAKNTVYLQMNSLKPEDSAVYYCAAESYYSYSYYRPYEYYYWGQGTQLTVSS,high polyreactivity
10,QVQLVESGGGLVQAGGSLRLSCAASGIIFAYYAMGWYRQAPGKERELVASITNTGSTYYADSVKGRFTISRDNAKNTVYLQMNSLKPEDTAVYFCNAVLSSNTKWRYPGDYLGQGTQVTVSS,low polyreactivity
11,QVQLVESGGGLVQAGGSLRLSCAASGIIFDDNAMGWYRQAPGKERELVAAISSGSTTNYADSVKGRFTISRDNEKNTVYLQMTSLKPEDTAVYYCAAVDGLAFDYWGQGTQVTVSS,low polyreactivity
12,QVQLVESGGGLVQAGGSLRLSCAASGIIFDDYAMGWYRQAPGKERELVAAISVSGGSTYYADSVKGRFTISRDNAKNTVYLQMNSLKPEDTAVYYCAARLIVGRFLRYDYWGQGTQVSVSS,high polyreactivity
13,QVQLVESGGGLVQAGGSLRLSCAASGIIFDEYAMGWYRQAPGKERELVAAISSRGTNTYYADSVKGRFTISRDHAKNTVYLQMNSLKPEDTAVYYCAARRPPVTRHFGYWGQGTQVTVSS,high polyreactivity
14,QVQLVESGGGLVQAGGSLRLSCAASGIIFDGNAMGWYRQAPGKERELVASITSDSSTNYADSVKGRFTISRDNAKNTVYLQMNSLKPEDTAVYYCAADHWIAPRRDYWGQGTQVTVSS,low polyreactivity
15,QVQLVESGGGLVQAGGSLRLSCAASGIIFDLNAMGWYRQAPGKERELVAAITSGGSTYYADSVKGRFTISRDNAKNTVYLQMNSLKPEDTAVYYCAADYQAGDKLYDYWGQGTQVTLSS,low polyreactivity
16,QVQLVESGGGLVQAGGSLRLSCAASGIIFDNYAMGWYRQAPGKERELVAAISPGGSTYYADSVKGRFTISRDNAKNTVYLQMNSLKPEDTAVYYCNARKYTWYSSRFIRFDYWGQGTQVTVSS,high polyreactivity
17,QVQLVESGGGLVQAGGSLRLSCAASGIIFDRYAKGWYRQAPGKERELVAAITYGGGSTYYADSVKGRFTISRDNAKNTVYLQMNSLKPEDTSVYYCAAVPRSGMYYWGQGTQVTVSS,high polyreactivity
18,QVQLVESGGGLVQAGGSLRLSCAASGIIFDRYAMGWYRQAPGKEREFVAAISRRGGSTYYADSVKGRFTISRDNAKNTVYLQMNSLKPEDTAVYYCAKEIRYYSSVSESDYWGQGTQVTVSS,high polyreactivity
19,QVQLVESGGGLVQAGGSLRLSCAASGIIFDRYTMGWYRQAPGKERELVAAIDDSDDSTYYADSVKGRFTISRDNAKNTVYLQMNSLKPEDTAVYYCAAEYTWFEYIDFGYWGQGTQVTVSS,high polyreactivity
20,QVQLVESGGGLVQAGGSLRLSCAASGIIFDSYAMGWYRPAPGKERELVAAITSDSGRTYYADSVKGRFTISRDNAKNTVYLQMNSLKPEDTAVYYCAKRWDCPYDYWGQGTQVTVSS,low polyreactivity
21,QVQLVESGGGLVQAGGSLRLSCAASGIIFDWYAMGWYRQAPGKERELVAAISDSGDTTYYADSVKGRFTISRDNAKNTVYLQMNSLKPEDTAVYYCAAVSYQYYDLDYWGQGTQVTVSS,high polyreactivity
